In assay [1] the target is recombinant soluble 1957 H2 HA (A/Japan/305+/1957) (Influenza A virus A/Japan/305+/1957 (H2N2)). As to the kind of experiment: ELISA, supernate.
Assay [2] addresses recombinant soluble 1968 H3 HA (A/Aichi/2/1968) (Influenza A virus A/Aichi/2/1968 (H3N2)) (UniProt P03437). As to the kind of experiment: ELISA, supernate.
The target of assay [3] is recombinant soluble trimeric 1918 H1 HA (A/South Carolina/1/1918, wild type) (Influenza A virus A/South Carolina/1/1918 (H1N1)) (UniProt Q9WFX3). As to the kind of experiment: ELISA, supernate.
The target in assay [4] is recombinant soluble trimeric 2009 H1 HA (A/California/04/2009, wild type) (Influenza A virus A/California/04/2009 (H1N1)). As to the kind of experiment: ELISA, supernate.
Assay [5] deals with soluble 1999 H1 HA (seasonal 1999 H1N1) (Influenza A virus (H1N1, 1999)). As to the kind of experiment: ELISA, supernate.
Assay [6] addresses soluble 2004 H5 HA (Influenza A virus (H5N1, 2004)). As to the kind of experiment: ELISA, supernate.
Assay [7] addresses 1997 H6N1 HA (Influenza A virus (H6N1, 1997)). As to the kind of experiment: ELISA, supernate.
Assay [8] concerns the target 1997 H9N2 HA (Influenza A virus (H9N2, 1997)). As to the kind of experiment: ELISA, supernate.
Assay [9] concerns the target recombinant soluble 1957 H2 HA (A/Japan/305+/1957) (Influenza A virus A/Japan/305+/1957 (H2N2)). As to the kind of experiment: ELISA, supernate. This is another data set of the same source.
For assay [10], the target named is recombinant soluble 1968 H3 HA (A/Aichi/2/1968) (Influenza A virus A/Aichi/2/1968 (H3N2)) (UniProt P03437). As to the kind of experiment: ELISA, supernate. The source holds these as a separate data set.
Assay [11] deals with recombinant soluble trimeric 1918 H1 HA (A/South Carolina/1/1918, wild type) (Influenza A virus A/South Carolina/1/1918 (H1N1)) (UniProt Q9WFX3). As to the kind of experiment: ELISA, supernate. The source holds these as a separate data set.
Assay [12] has as its target recombinant soluble trimeric 2009 H1 HA (A/California/04/2009, wild type) (Influenza A virus A/California/04/2009 (H1N1)). As to the kind of experiment: ELISA, supernate. This is another data set of the same source.
For assay [13], the target named is soluble 1999 H1 HA (seasonal 1999 H1N1) (Influenza A virus (H1N1, 1999)). As to the kind of experiment: ELISA, supernate. The source holds these as a separate data set.
In assay [14] the target is soluble 2004 H5 HA (Influenza A virus (H5N1, 2004)). As to the kind of experiment: ELISA, supernate. The source holds these as a separate data set.
For assay [15], the target named is recombinant soluble 1957 H2 HA (A/Japan/305+/1957) (Influenza A virus A/Japan/305+/1957 (H2N2)). As to the kind of experiment: ELISA, recombinant mAb.
Assay [16] addresses recombinant soluble trimeric 2009 H1 HA (A/California/04/2009, wild type) (Influenza A virus A/California/04/2009 (H1N1)). As to the kind of experiment: ELISA, recombinant mAb.
Assay [17] deals with soluble 1999 H1 HA (seasonal 1999 H1N1) (Influenza A virus (H1N1, 1999)). As to the kind of experiment: ELISA, recombinant mAb.
Assay [18] deals with soluble 2004 H5 HA (Influenza A virus (H5N1, 2004)). As to the kind of experiment: ELISA, recombinant mAb.
Assay [19] deals with 1997 H6N1 HA (Influenza A virus (H6N1, 1997)). As to the kind of experiment: ELISA, recombinant mAb.
For assay [20], the target named is 1997 H9N2 HA (Influenza A virus (H9N2, 1997)). As to the kind of experiment: ELISA, recombinant mAb.
Assay [21] deals with recombinant soluble 1957 H2 HA (A/Japan/305+/1957) (Influenza A virus A/Japan/305+/1957 (H2N2)). As to the kind of experiment: ELISA, recombinant mAb. The source holds these as a separate data set.
Assay [22] addresses recombinant soluble trimeric 2009 H1 HA (A/California/04/2009, wild type) (Influenza A virus A/California/04/2009 (H1N1)). As to the kind of experiment: ELISA, recombinant mAb. This is another data set of the same source.
The target in assay [23] is soluble 1999 H1 HA (seasonal 1999 H1N1) (Influenza A virus (H1N1, 1999)). As to the kind of experiment: ELISA, recombinant mAb. The source holds these as a separate data set.
Assay [24] addresses soluble 2004 H5 HA (Influenza A virus (H5N1, 2004)). As to the kind of experiment: ELISA, recombinant mAb. This is another data set of the same source.
The target of assay [25] is HA of A/Brisbane/59/2007 (H1N1) virus (Influenza A virus (H1N1)). As to the kind of experiment: cell-based or functional assay.
Assay [26] addresses HA of A/California/04/2009 (H1N1) virus (Influenza A virus (H1N1)). As to the kind of experiment: cell-based or functional assay.
Assay [27] deals with HA of A/L3/1947 (H1N1) virus (Influenza A virus (H1N1)). As to the kind of experiment: cell-based or functional assay.
Assay [28] concerns the target HA of A/New Caledonia/20/1999 (H1N1) virus (Influenza A virus (H1N1)). As to the kind of experiment: cell-based or functional assay.
Assay [29] concerns the target HA of A/New Jersey/11/1976 (H1N1) virus (Influenza A virus (H1N1)). As to the kind of experiment: cell-based or functional assay.
Assay [30] deals with HA of A/South Carolina/1/1918 (H1N1), wild type, on VLP (Influenza A virus A/South Carolina/1/1918 (H1N1)) (UniProt Q9WFX3). As to the kind of experiment: cell-based or functional assay.
The target in assay [31] is HA of A/USSR/92/1977 (H1N1) virus (Influenza A virus (H1N1)). As to the kind of experiment: cell-based or functional assay.
In assay [32] the target is HA of A/Weiss/1943 (H1N1) virus (Influenza A virus (H1N1)). As to the kind of experiment: cell-based or functional assay.
Assay [33] has as its target HA of A/swine/Iowa/15/1930 (H1N1) virus (Influenza A virus (H1N1)). As to the kind of experiment: cell-based or functional assay.

Read-outs that look alike come from different tables or passages of the source.

B1: mAb 5I17 (antibody, V domains shown)
VH: EVQLVESGGGVVQPGRSLRLSCAASGFSFSNYAMHWVRQAPGKGLEWVALISFDGSDKYYADSVKGRFTMSRDNSKNTLYLQMNSLRAEDTAVYYCARDEPYCGGDCFAFDVWGQGTMVTVS
VL: DIQLTQSPSSLSASAGDRVSMTCRASQIISSSLNWYQQKPGKAPKLLIYAASNLQSGVPSRFSGSGSGTDFTLTISSLQPEDFATYYCQQSYSTPPELTFGGGTKVDIKR
Consider B1, for which the OD in assay [1] came to 0.85 OD; in [2], 0.267 OD; in [3], 0.495 OD; in [4], 0.668 OD; in assay [5], 1.93 OD; in [6], 1.55 OD. The OD in assay [7] amounted to 0.11 OD; in [8], 1.98 OD; in assay [9], 1.38 OD; in assay [10] it was 0.156 OD; in assay [11], 0.522 OD; in [12], 0.566 OD. Further, the OD in [13] is 1.19 OD; in assay [14], 1.17 OD.

B2: mAb 3N6 (recombinant) (antibody, V domains shown)
VH: QVQLQESGPGLVKPSETLSLTCSVSGGSINYYYWSWIRQPPGKGLECIGYISDTGRTYYNPSLRSRVTISVDTSKNQFSLNLTSMTAADTAVYYCARDPTGSRQKNAFDMWGQGTMVTVS
VL: AIQMTQSPSSLSASVGDRVTITCRASQNIRSYLNWYQQKPGKAPNLLIYGTTSLESGVPSRFSGSGSGTDFTLTISSLQPEDFATYYCQQSYHTPQTFGQGTKVEIKR
Take B2: the OD in [15] stood at 0.57 OD; in assay [16], 1.03 OD; in [17], 0.909 OD; in assay [18] it was 2.03 OD; in [19], 0.23 OD; in [20] it was 0.084 OD. Besides, the OD in assay [21] worked out at 0.801 OD; in assay [22] it was 2.69 OD; in assay [23], 1.49 OD; in assay [24], 3.07 OD.

B3: mAb 6J24 (antibody, V domains shown)
VH: EVQLVESGGGLVQPGRSLRLSCVGSGFNFDGYAMQWVRQVPGKGLEWVSGISWHSDSTGYADSVRGRFTISRDNAKNSLYLQMDSLRPEDTAFYYCGKSIGHVGGSYRHPIDYWGQGTLVTVS
VL: DIQLTQSPSSLSASVGDRVTITCRASQGITDYLAWYQQKPGTIPKLLIYAASTLQSGVPSRFSGGGYGTDFTLTISSLQPEDVATYYCQKYNSAPLTFGGGTKVEIKR
On to B3, for which the OD in [1] was found to be 0.219 OD; in assay [4], 0.981 OD; in assay [5], 0.183 OD; in [6] it was 0.379 OD; in assay [7], 0.163 OD; in assay [8], 0.075 OD. Also, the OD is 0.097 OD in assay [9], 0.102 OD in [12], 0.083 OD in [13] and 0.182 OD in assay [14].

B4: mAb 6D9 (antibody, V domains shown)
VH: EVQLVESGGGLVQPGGSLRLSCAASGFIFESYWMTWVRQAPGKGLEWVANIKQDGSEKNYVDSVKGRFTISRDNAKTSLYLQMNSLRAEDTAMYYCARSGSNWDTYYYYYGMDVWGQGTTVTVS
VL: EIVLTQSPGTLSLSPGERATLSCRASQSVDSNYLGWYQQRPGQAPRLLIYGASSRATGVPDRFSASGSGTDFTLSISRLEPEDFAVYYCQQYGSSFGQGTKVEIKR
As for B4, the HAI activity in assay [25] is above 20 µg/mL; in assay [26], 0.7 µg/mL; in assay [27], above 20 µg/mL; in assay [28] it was above 20 µg/mL; in assay [29], 1.3 µg/mL; in [30], 0.2 µg/mL. Besides, the HAI activity in assay [31] is 2.5 µg/mL; in [32] it was above 20 µg/mL; in assay [33], 0.4 µg/mL.

The values above are taken from US20130289246A1.
